PMC8810934

Target: F-actin in live HEK293T cells (human (endogenous in HEK293T)) (UniProt P60709)
Assay: FRET or BRET; live HEK293T cells co-transfected with ABD-mEGFP (donor) and Lifeact-mCherry (acceptor, on actin filaments); harvested 24 h after transfection; FRET efficiency from mEGFP fluorescence lifetime (time-correlated single photon counting); n = 3

FRET efficiency: 8.4%
Substance: L253P β-III-spectrin ABD fused at the C-terminus to mEGFP (domain or fragment)
